First the molecules themselves.
B1: Notch homolog 2 N-terminal-like protein A (Homo sapiens), Q7Z3S9 (parent)
chain: MCVTYHNGTGYCKCPEGFLGEYCQHRDPCEKNRCQNGGTCVAQAMLGKATCRCASGFTGEDCQYSTSHPCFVSRPCLNGGTCHMLSRDTYECTCQVGFTGKECQWTDACLSHPCANGSTCTTVANQFSCKCLTGFTGQKCETDVNECDIPGHCQHGGTCLNLPGSYQCQCLQGFTGQYCDSLYVPCAPSPCVNGGTCRQTGDFTFECNCLPETVRRGTELWERDREVWNGKEHDEN
partner: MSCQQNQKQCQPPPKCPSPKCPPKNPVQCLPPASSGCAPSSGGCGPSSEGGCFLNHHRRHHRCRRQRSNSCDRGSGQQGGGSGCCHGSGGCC
B2: Keratin, type I cytoskeletal 13 (Homo sapiens), P13646 (parent)
chain: MSLRLQSSSASYGGGFGGGSCQLGGGRGVSTCSTRFVSGGSAGGYGGGVSCGFGGGAGSGFGGGYGGGLGGGYGGGLGGGFGGGFAGGFVDFGACDGGLLTGNEKITMQNLNDRLASYLEKVRALEEANADLEVKIRDWHLKQSPASPERDYSPYYKTIEELRDKILTATIENNRVILEIDNARLAADDFRLKYENELALRQSVEADINGLRRVLDELTLSKTDLEMQIESLNEELAYMKKNHEEEMKEFSNQVVGQVNVEMDATPGIDLTRVLAEMREQYEAMAERNRRDAEEWFHTKSAELNKEVSTNTAMIQTSKTEITELRRTLQGLEIELQSQLSMKAGLENTVAETECRYALQLQQIQGLISSIEAQLSELRSEMECQNQEYKMLLDIKTRLEQEIATYRSLLEGQDAKMIGFPSSAGSVSPRSTSVTTTSSASVTTTSNASGRRTSDVRRP
partner: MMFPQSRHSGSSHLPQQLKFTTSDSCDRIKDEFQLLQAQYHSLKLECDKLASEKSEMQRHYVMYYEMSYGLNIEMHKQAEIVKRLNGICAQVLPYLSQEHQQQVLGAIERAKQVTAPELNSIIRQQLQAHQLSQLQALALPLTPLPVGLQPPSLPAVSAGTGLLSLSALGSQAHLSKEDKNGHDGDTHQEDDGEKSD
B3: Tetraspanin-5 (Homo sapiens), P62079 (parent)
chain: MSGKHYKGPEVSCCIKYFIFGFNVIFWFLGITFLGIGLWAWNEKGVLSNISSITDLGGFDPVWLFLVVGGVMFILGFAGCIGALRENTFLLKFFSVFLGIIFFLELTAGVLAFVFKDWIKDQLYFFINNNIRAYRDDIDLQNLIDFTQEYWQCCGAFGADDWNLNIYFNCTDSNASRERCGVPFSCCTKDPAEDVINTQCGYDARQKPEVDQQIVIYTKGCVPQFEKWLQDNLTIVAGIFIGIALLQIFGICLAQNLVSDIEAVRASW
partner: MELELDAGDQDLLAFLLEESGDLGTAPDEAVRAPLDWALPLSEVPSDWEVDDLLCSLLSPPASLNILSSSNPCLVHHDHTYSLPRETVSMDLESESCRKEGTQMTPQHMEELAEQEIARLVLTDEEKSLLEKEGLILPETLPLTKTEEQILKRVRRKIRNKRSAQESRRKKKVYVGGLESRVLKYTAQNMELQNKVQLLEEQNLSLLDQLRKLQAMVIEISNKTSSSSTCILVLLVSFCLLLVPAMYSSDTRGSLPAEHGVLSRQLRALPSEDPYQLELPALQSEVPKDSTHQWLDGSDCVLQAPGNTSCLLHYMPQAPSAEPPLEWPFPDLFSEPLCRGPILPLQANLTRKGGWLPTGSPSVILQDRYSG
B4: ATPase PAAT (Homo sapiens), Q9H8K7 (parent)
chain: METRTEDGGLTRRPTLASSWDVAGGALTHSLLLTRAGLGPGDFDWEELLAPPAPGQDLVILKRNHNNKDENPCFLYLRCGPDGGEEIASIGILSSARNMEVYLGEEYCGTSRGKNVCTVLDDSEHEKIILYKKNLKLESSTHACKIKLLSFGERQCVFISKVVVHMRSVFANSSTSSPALGSRIDLDKVQTIMESMGSKLSPGAQQLMDMVRCQQRNCIPIGEQLQSVLGNSGYKHMIGLQSSSTLGTLNKSSSTPFPFRTGLTSGNVTENLQTYIDKSTQLPGGENSTKLDECKVMPQNHSFLENDLKNAMASFLPKKVSDNSNIPNSELLPFLQNLCSQVNHLHVGNKTECQENITKHGERILGVGMEEQSICSYLEKILSKNMELMEKKLMDYIDQRIHELQEHIDDKIALLLDLLQNPNSPPTGIPLRHYDSGERLSNGER
partner: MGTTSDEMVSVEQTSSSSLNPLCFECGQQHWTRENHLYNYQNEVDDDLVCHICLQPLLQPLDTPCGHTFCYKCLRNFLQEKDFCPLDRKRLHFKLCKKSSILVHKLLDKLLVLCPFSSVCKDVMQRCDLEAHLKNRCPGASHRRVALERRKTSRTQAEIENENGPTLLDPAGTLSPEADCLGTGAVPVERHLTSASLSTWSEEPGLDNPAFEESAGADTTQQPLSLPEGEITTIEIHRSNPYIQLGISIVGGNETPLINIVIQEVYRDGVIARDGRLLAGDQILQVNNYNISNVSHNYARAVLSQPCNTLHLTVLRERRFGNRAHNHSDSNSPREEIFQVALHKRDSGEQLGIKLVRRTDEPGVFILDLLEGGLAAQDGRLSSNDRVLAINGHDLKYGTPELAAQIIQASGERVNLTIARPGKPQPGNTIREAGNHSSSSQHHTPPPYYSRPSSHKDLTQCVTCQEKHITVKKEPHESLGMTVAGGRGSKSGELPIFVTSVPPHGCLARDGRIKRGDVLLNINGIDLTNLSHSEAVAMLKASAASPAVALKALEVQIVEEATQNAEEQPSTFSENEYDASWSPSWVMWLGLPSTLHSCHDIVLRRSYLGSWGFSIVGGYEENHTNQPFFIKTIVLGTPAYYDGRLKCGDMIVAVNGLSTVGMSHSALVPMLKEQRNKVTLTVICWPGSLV

The first test covers variants of B1. As to conditions: with lce3e_human LCE3E.
As for A115T, the “effect of a mutation on the interaction” value is “with no effect”.

On to R74Q, for which the “effect of a mutation on the interaction” value was “with no effect”.

Variants of B2 are the subject of the next test. As to conditions: with tle5_human TLE5, Q08117.
On to MSLRLQSSSASYGGGFGGGSCQLGGGRGVSTCSTRFVSGGSAGGYGGGVSCGFGGGAGSGFGGGYGGGLGGGYGGGLGGGFGGGFAGGFVDFGACDGGLLTGNEKITMQNLNDRLASYLEKVRALEEANADLEVKIRDWHLKQSPASPERDYSPYYKTIEELRDKILTATIENNRVILEIDNARLAADDFRLKYENELALRQSVEADINGLRRVLDELTLSKTDLEMQIESLNEELAYMKKNHEEEMKEFSNQVVGQVNVEMDATPGIDLTRVLAEMREQYEAMAERNRRDAEEWFHTKSAELNKEVSTNTAMIQTSKTEITELRRTLQGLEIELQSQLSMKAGLENTVAETECHYALQLQQIQGLISSIEAQLSELRSEMECQNQEYKMLLDIKTRLEQEIATYRSLLEGQDAKMIGFPSSAGSVSPRSTSVTTTSSASVTTTSNASGRRTSDVRRP [R355H], for which the “effect of a mutation on the interaction” value was “with no effect”.

The next test covers variants of B3. As to conditions: with creb3_human CREB3, O43889.
Regarding MSGKHYKGPEVSCCIKYFIFGFNVIFWFLGITFLGIGLWAWNEKGVLSNISSITDLGGFDPVWLFLVVGGVMFILGFAGCIGALRENTFLLKFFSVFLGIIFFLELTAGVLAFVFKDWIKDQLYFFINNNIRAYRDDIDLQNLIDFTQEYWQCCGAFGADDWNLNIYFNCTDSNASRERCGVPFSCCTKDPAEDVINTQCGYDARQKPEVDQQIVIYMKGCVPQFEKWLQDNLTIVAGIFIGIALLQIFGICLAQNLVSDIEAVRASW [T218M], the “effect of a mutation on the interaction” value is “with no effect”.

The next test covers variants of B4. The following applies: with lnx2_human LNX2, Q8N448.
For METRTEDRGLTRRPTLASSWDVAGGALTHSLLLTRAGLGPGDFDWEELLAPPAPGQDLVILKRNHNNKDENPCFLYLRCGPDGGEEIASIGILSSARNMEVYLGEEYCGTSRGKNVCTVLDDSEHEKIILYKKNLKLESSTHACKIKLLSFGERQCVFISKVVVHMRSVFANSSTSSPALGSRIDLDKVQTIMESMGSKLSPGAQQLMDMVRCQQRNCIPIGEQLQSVLGNSGYKHMIGLQSSSTLGTLNKSSSTPFPFRTGLTSGNVTENLQTYIDKSTQLPGGENSTKLDECKVMPQNHSFLENDLKNAMASFLPKKVSDNSNIPNSELLPFLQNLCSQVNHLHVGNKTECQENITKHGERILGVGMEEQSICSYLEKILSKNMELMEKKLMDYIDQRIHELQEHIDDKIALLLDLLQNPNSPPTGIPLRHYDSGERLSNGER [G8R], the “effect of a mutation on the interaction” value was “with no effect”.

These data come from IntAct's records for PubMed 31515488.
